Measurements from PMC2290040 (The Journal of Cell Biology, 1992).

How the values were obtained:
Experiment in all cases: co-IP
[1] = target: T1, RHL-1 truncated at the carboxy terminus, product of 267 aa (rat, UniProt P02706 1-267, [35S]methionine label)
T1 sequence (looked up): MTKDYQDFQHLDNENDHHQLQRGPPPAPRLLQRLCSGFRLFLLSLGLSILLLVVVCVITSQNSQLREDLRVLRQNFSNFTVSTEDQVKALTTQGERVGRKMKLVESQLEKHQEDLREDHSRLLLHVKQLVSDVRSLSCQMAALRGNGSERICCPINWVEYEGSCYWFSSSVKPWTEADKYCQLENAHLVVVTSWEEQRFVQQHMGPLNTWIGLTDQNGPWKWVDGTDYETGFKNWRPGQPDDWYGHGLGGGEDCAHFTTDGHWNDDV

[2] = target: T2, RHL-1 truncated at the carboxy terminus, product of 260 aa (rat, UniProt P02706 1-260, [35S]methionine label)
T2 sequence (looked up): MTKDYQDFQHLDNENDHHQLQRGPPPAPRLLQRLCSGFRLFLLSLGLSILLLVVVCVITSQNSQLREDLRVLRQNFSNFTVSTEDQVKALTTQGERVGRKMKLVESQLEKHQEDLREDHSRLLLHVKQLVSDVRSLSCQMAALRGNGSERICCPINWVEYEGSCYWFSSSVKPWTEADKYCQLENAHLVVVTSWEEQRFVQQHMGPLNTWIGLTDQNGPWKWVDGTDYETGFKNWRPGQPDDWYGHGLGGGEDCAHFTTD

[3] = target: T3, RHL-1 truncated at the carboxy terminus, product of 204 aa (rat, UniProt P02706 1-204, [35S]methionine label)
T3 sequence (looked up): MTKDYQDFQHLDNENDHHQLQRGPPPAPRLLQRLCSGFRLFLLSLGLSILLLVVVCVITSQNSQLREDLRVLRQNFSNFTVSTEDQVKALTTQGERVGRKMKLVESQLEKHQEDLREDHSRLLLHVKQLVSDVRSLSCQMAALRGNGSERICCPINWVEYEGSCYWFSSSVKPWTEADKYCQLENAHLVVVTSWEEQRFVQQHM

B1: rat hepatic lectin subunit RHL-2/3 (subunit of the rat asialoglycoprotein receptor), full length (natural protein, UniProt P08290 1-301, looked up)
chain: MEKDFQDIQQLDSEENDHQLIGDEEQGSHVQNLRTENPRWGGQPPSRPFPQRLCSKFRLSLLALAFNILLLVVICVVSSQSMQLQKEFWTLKETLSNFSTTTLMEFKALDSHGGSRNDNLTSWETILEKKQKDIKADHSTLLFHLKHFPLDLRTLTCQLAFFLSNGTECCPVNWVEFGGSCYWFSRDGLTWAEADQYCQMENAHLLVINSREEQEFVVKHRGAFHIWIGLTDKDGSWKWVDGTEYRSNFKNWAFTQPDNWQGHEEGGSEDCAEILSDGLWNDNFCQQVNRWACERKRDITY
modifications: [35S]methionine label; glycosylated by the microsomes
percent of RHL-2/3 coimmunoprecipitated, relative to full-length RHL-1 [1]: 100%
percent of RHL-2/3 coimmunoprecipitated, relative to full-length RHL-1 [2]: 100%
percent of RHL-2/3 coimmunoprecipitated, relative to full-length RHL-1 [3]: 88%
